Blank lines part the entries; values can stand above or below the molecule they belong to.
What was measured:
[1] = biological target: bombesin receptor of PC3 cells; test: 125I-ligand binding to PC3 cells; with 12 µM SKF-96365
[2] = biological target: bombesin receptor of PC3 cells; test: 125I-ligand binding to PC3 cells, 37C; with 60 µM NDGA
[3] = biological target: bombesin receptor of PC3 cells; test: 125I-ligand binding to PC3 cells, 37C; with 60 µM MK886
[4] = biological target: bombesin receptor of PC3 cells; test: 125I-ligand binding to PC3 cells, 37C; with 12 µM MK886
[5] = biological target: bombesin receptor of PC3 cells; test: 125I-ligand binding to PC3 cells; with 12 µM verapamil
[6] = biological target: bombesin receptor of PC3 cells; test: 125I-ligand binding to PC3 cells, 37C; with 12 µM AA-861
[7] = biological target: bombesin receptor of PC3 cells; test: 125I-ligand binding to PC3 cells, 37C; with 60 µM AA-861
[8] = biological target: bombesin receptor of PC3 cells; test: 125I-ligand binding to PC3 cells, 37C; with 60 µM Rev-5901
[9] = biological target: bombesin receptor of PC3 cells; test: Scatchard analysis, PC3 cells, 37C
[10] = biological target: bombesin receptor of PC3 cells; test: 125I-ligand binding to PC3 cells; with 60 µM NIF
[11] = biological target: bombesin receptor of PC3 cells; test: displacement of 125I-ligand by unlabeled ligand, PC3 cells, 37C
[12] = biological target: bombesin receptor of PC3 cells; test: 125I-ligand binding to PC3 cells, 37C; with 12 µM Rev-5901
[13] = biological target: bombesin receptor of PC3 cells; test: 125I-ligand binding to PC3 cells; with 12 µM NIF
[14] = biological target: bombesin receptor of PC3 cells; test: 125I-ligand binding to PC3 cells, 37C
[15] = biological target: bombesin receptor of PC3 cells; test: 125I-ligand binding to PC3 cells; with 60 µM phloretin
[16] = biological target: bombesin receptor of PC3 cells; test: 125I-ligand binding to PC3 cells; with 60 µM SKF-96365
[17] = biological target: bombesin receptor of PC3 cells; test: 125I-ligand binding to PC3 cells; with 60 µM verapamil
[18] = biological target: bombesin receptor of PC3 cells; test: 125I-ligand binding to PC3 cells; with 12 µM phloretin
[19] = biological target: bombesin receptor of PC3 cells; test: 125I-ligand binding to PC3 cells, 37C; with 12 µM NDGA
[20] = biological target: vasopressin (V1a) receptor of PC3 cells (UniProt P37288); test: 125I-ligand binding to PC3 cells; with 12 µM SKF-96365
[21] = biological target: vasopressin (V1a) receptor of PC3 cells (UniProt P37288); test: 125I-HOLVA binding to PC3 cell membranes; with 60 µM SKF-96365
[22] = biological target: vasopressin (V1a) receptor of PC3 cells (UniProt P37288); test: 125I-ligand binding to PC3 cells, 37C; with 60 µM NDGA
[23] = biological target: vasopressin (V1a) receptor of PC3 cells (UniProt P37288); test: 125I-ligand binding to PC3 cells, 37C; with 60 µM MK886
[24] = biological target: vasopressin (V1a) receptor of PC3 cells (UniProt P37288); test: 125I-ligand binding to PC3 cells, 37C; with 12 µM MK886
[25] = biological target: vasopressin (V1a) receptor of PC3 cells (UniProt P37288); test: 125I-ligand binding to PC3 cells; with 12 µM verapamil
[26] = biological target: vasopressin (V1a) receptor of PC3 cells (UniProt P37288); test: 125I-ligand binding to PC3 cells, 37C; with 12 µM AA-861
[27] = biological target: vasopressin (V1a) receptor of PC3 cells (UniProt P37288); test: 125I-ligand binding to PC3 cells, 37C; with 60 µM AA-861
[28] = biological target: vasopressin (V1a) receptor of PC3 cells (UniProt P37288); test: 125I-ligand binding to PC3 cells, 37C; with 60 µM Rev-5901
[29] = biological target: vasopressin (V1a) receptor of PC3 cells (UniProt P37288); test: Scatchard analysis, PC3 cells, 37C
[30] = biological target: vasopressin (V1a) receptor of PC3 cells (UniProt P37288); test: 125I-ligand binding to PC3 cells; with 60 µM NIF
[31] = biological target: vasopressin (V1a) receptor of PC3 cells (UniProt P37288); test: displacement of 125I-ligand by unlabeled ligand, PC3 cells, 37C
[32] = biological target: vasopressin (V1a) receptor of PC3 cells (UniProt P37288); test: 125I-ligand binding to PC3 cells, 37C; with 12 µM Rev-5901
[33] = biological target: vasopressin (V1a) receptor of PC3 cells (UniProt P37288); test: 125I-ligand binding to PC3 cells; with 12 µM NIF
[34] = biological target: vasopressin (V1a) receptor of PC3 cells (UniProt P37288); test: 125I-ligand binding to PC3 cells, 37C
[35] = biological target: vasopressin (V1a) receptor of PC3 cells (UniProt P37288); test: 125I-HOLVA binding to PC3 cell membranes; with 60 µM verapamil
[36] = biological target: vasopressin (V1a) receptor of PC3 cells (UniProt P37288); test: 125I-ligand binding to PC3 cells; with 60 µM phloretin
[37] = biological target: vasopressin (V1a) receptor of PC3 cells (UniProt P37288); test: 125I-ligand binding to PC3 cells; with 60 µM SKF-96365
[38] = biological target: vasopressin (V1a) receptor of PC3 cells (UniProt P37288); test: 125I-ligand binding to PC3 cells; with 60 µM verapamil
[39] = biological target: vasopressin (V1a) receptor of PC3 cells (UniProt P37288); test: 125I-HOLVA binding to PC3 cell membranes; with 60 µM NIF
[40] = biological target: vasopressin (V1a) receptor of PC3 cells (UniProt P37288); test: 125I-ligand binding to PC3 cells; with 12 µM phloretin
[41] = biological target: vasopressin (V1a) receptor of PC3 cells (UniProt P37288); test: 125I-ligand binding to PC3 cells, 37C; with 12 µM NDGA
[42] = biological target: T1, neurotensin receptor 1 (NTR1) of PC3 cells (UniProt P30989 1-418, limits assumed); test: UV crosslinking on PC3 cells, immunoprecipitated NTR1; with 50 µM MK886
T1 construct: whole, on cells; its antiserum peptide is from human NTR1; Some assays used isolated PC3 cell membranes or detergent or SDS extracts instead of live cells (see the assay field); also called NT receptor

[43] = biological target: T1, neurotensin receptor 1 (NTR1) of PC3 …; test: UV crosslinking on PC3 cells, immunoprecipitated NTR1; with 50 µM NDGA
[44] = biological target: T1, neurotensin receptor 1 (NTR1) of PC3 …; test: UV crosslinking on PC3 cells, immunoprecipitated NTR1; with verapamil against control
[45] = biological target: T1, neurotensin receptor 1 (NTR1) of PC3 …; test: UV crosslinking on PC3 cells, immunoprecipitated NTR1; with phloretin against control
[46] = biological target: T1, neurotensin receptor 1 (NTR1) of PC3 …; test: UV crosslinking on PC3 cells, immunoprecipitated NTR1; with NIF against control

Chain of bombesin receptor of PC3 cells (P30550 whole entry): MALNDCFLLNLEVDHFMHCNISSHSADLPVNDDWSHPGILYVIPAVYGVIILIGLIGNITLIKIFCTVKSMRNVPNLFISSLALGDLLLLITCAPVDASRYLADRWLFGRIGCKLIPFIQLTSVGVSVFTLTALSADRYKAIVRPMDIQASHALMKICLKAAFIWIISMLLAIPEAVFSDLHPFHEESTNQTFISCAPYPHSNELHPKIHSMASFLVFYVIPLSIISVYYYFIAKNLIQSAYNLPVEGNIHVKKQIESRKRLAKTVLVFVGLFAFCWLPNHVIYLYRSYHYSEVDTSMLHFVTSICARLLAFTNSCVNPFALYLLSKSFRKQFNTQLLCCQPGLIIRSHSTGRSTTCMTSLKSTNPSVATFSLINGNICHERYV
Chain of vasopressin (V1a) receptor of PC3 cells (P37288 whole entry): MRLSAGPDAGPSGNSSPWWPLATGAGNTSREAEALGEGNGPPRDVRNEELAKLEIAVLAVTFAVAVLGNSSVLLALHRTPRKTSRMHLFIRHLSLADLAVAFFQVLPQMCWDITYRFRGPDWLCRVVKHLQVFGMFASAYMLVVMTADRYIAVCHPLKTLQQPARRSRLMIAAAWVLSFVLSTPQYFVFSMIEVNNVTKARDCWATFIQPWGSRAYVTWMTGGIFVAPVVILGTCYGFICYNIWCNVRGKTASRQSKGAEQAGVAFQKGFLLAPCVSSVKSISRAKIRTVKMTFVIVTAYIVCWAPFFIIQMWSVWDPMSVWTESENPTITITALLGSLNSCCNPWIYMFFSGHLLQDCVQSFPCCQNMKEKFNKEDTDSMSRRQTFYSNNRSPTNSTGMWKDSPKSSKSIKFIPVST
T1 sequence (P30989 whole entry): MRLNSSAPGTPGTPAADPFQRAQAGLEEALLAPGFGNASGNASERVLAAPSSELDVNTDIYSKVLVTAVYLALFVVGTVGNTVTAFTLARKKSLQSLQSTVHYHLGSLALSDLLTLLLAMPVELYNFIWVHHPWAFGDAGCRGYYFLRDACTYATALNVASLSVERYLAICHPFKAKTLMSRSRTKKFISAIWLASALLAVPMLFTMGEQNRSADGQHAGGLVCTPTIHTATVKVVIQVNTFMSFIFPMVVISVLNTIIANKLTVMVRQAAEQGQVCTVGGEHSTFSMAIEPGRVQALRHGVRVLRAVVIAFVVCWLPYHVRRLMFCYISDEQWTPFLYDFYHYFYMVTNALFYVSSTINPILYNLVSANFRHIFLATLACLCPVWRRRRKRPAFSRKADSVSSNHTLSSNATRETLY

- Specific Binding (% control) [1]: 99 % control
- Specific Binding (% control) [2]: 127 % control
- Specific Binding (% control) [3]: 125 % control
- Specific Binding (% control) [4]: 106 % control
- Specific Binding (% control) [5]: 104 % control
- Specific Binding (% control) [6]: 112 % control
- Specific Binding (% control) [7]: 135 % control
- Specific Binding (% control) [8]: 119 % control
- Bmax [9]: 1020 fmol/mg
- Specific Binding (% control) [10]: 119 % control
- Ki [11]: 0.6 nM
- Specific Binding (% control) [12]: 107 % control
- Specific Binding (% control) [13]: 108 % control
- Specific Binding (% of total) [14]: 95 % of total
- Specific Binding (% control) [15]: 111 % control
- Specific Binding (% control) [16]: 106 % control
- Specific Binding (% control) [17]: 104 % control
- Specific Binding (% control) [18]: 104 % control
- Specific Binding (% control) [19]: 110 % control
Molecule: (Tyr 4, Nle 14)-bombesin (peptide)

- Specific Binding (% control) [20]: 80 % control
- Binding (% control) [21]: 110 % control
- Specific Binding (% control) [22]: 50 % control
- Specific Binding (% control) [23]: 67 % control
- Specific Binding (% control) [24]: 93 % control
- Specific Binding (% control) [25]: 85 % control
- Specific Binding (% control) [26]: 87 % control
- Specific Binding (% control) [27]: 57 % control
- Specific Binding (% control) [28]: 42 % control
- Bmax [29]: 156 fmol/mg
- Specific Binding (% control) [30]: 59 % control
- Ki [31]: 0.5 nM
- Specific Binding (% control) [32]: 68 % control
- Specific Binding (% control) [33]: 95 % control
- Specific Binding (% of total) [34]: 77 % of total
- Binding (% control) [35]: 91 % control
- Specific Binding (% control) [36]: 73 % control
- Specific Binding (% control) [37]: 50 % control
- Specific Binding (% control) [38]: 58 % control
- Binding (% control) [39]: 90 % control
- Specific Binding (% control) [40]: 92 % control
- Specific Binding (% control) [41]: 84 % control
Molecule: des-Gly-[Phaal, D-Tyr(Et)2, Lys6, Arg8]-vasopressin (HOLVA) (peptide)

- fold increase in radioactivity associated with NTR1 [42]: 2.7 fold
- fold increase in radioactivity associated with NTR1 [43]: 2.6 fold
- fold increase in radioactivity associated with NTR1 [44]: 1.5 fold
- fold increase in radioactivity associated with NTR1 [45]: 1.8 fold
- fold increase in radioactivity associated with NTR1 [46]: 2.8 fold
B1: ^125I-[4-azido-Phe^6]-NT (peptide)
peptide: ELYENFPRRPYIL
modifications: 4-azido-Phe at position 6; pGlu at position 1; 125I iodinated
notes: the residue at 6 is 4-azido-phenylalanine

Source: US20090203048A1 (UNIVERSITY OF MASSACHUSETTS, published 2009)
